Assay results from US20260055369A1 (H LEE MOFFITT CANCER CENTER AND RESEARCH INSTITUTE, published 2026).

How the values were obtained:
[1] = molecular target: T1, hNotch4 (EGF7-12, residues 276-511), biotinylated (human, UniProt Q99466 276-511, Biotinylated in vitro by BirA at the C-terminal BAP-tag (tag not in the letters).); assay: SPR, KD of Delta^MAX against KD of WT DLL4
T1 construct: Immobilised on a streptavidin chip for SPR; also called Notch4 (7-12)
T1 sequence: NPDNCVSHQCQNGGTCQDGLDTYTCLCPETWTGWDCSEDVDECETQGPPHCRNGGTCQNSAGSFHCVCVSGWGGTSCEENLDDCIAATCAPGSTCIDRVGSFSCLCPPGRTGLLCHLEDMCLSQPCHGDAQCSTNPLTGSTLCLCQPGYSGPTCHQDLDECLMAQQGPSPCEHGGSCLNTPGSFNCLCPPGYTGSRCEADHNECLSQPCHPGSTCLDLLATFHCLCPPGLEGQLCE
Procedure: Surface plasmon resonance (SPR) was used to determine the binding affinity between Delta^MAX and the ligand-binding regions of Notch1-4. As a basis for comparison, a WT DLL4 construct, a DLL4.v2 construct, and a “DLL4.v1” construct containing the five E12 mutations (G28S, F107L, N118I, H194Y, and L206P) were also generated (FIG. 2A, 10). […] The rapid dissociation of WT DLL4 precluded kinetic fitting of the binding data.
Equilibrium dissociation constants were determined by surface plasmon resonance using a Biacore T200 instrument (GE Healthcare). Approximately 100 resonance units (RU) of biotinylated Notch extracellular fragments (Notch1 (EGF6-13), Notch2 (EGF6-13), Notch3 (EGF5-12), Notch4 (7-12), and mouse Notch1 (EGF6-13)) were immobilized on individual flow cells at 5 μl/min using a streptavidin-coated sensor chip (Series S Sensor chip SA, GE Healthcare). Three-fold serial dilutions of recombinant DLL4 proteins (N-EGF5) starting at 50 μM (WT DLL4), 18 μM (DLL4.v2), and 6 μM (DLL4.v1 and Delta^MAX) were flowed over the chip at 25° C. in SPR buffer (20 mM HEPES pH 7.4, 150 mM NaCl, 1 mM calcium chloride, 0.1% BSA supplemented with 0.005% surfactant P20). Association (“on-rate”) and dissociation (“off-rate”) phases were performed at 10 μl/min for 120 seconds and 300 seconds, respectively. […] Data collection rate was performed at 10 Hz, and curves were reference-subtracted from a flow cell containing 100 RU of a negative control non-related protein (biotinylated mouse RNF43 PA domain).

[2] = molecular target: T2, mouse Notch1 (EGF6-13, residues 221-526), biotinylated (mouse, UniProt Q01705 221-526, Biotinylated in vitro by BirA at the C-terminal BAP-tag (tag not in the letters).); assay: SPR steady-state binding isotherm, biotinylated mNotch1 (EGF6-13) on a streptavidin chip, DLL4 variant as analyte, response normalized to the maximum (100%)
T2 construct: Immobilised on a streptavidin chip for SPR; also called mNotch1 EGF6-13; mNotch1 (6-13)
T2 sequence: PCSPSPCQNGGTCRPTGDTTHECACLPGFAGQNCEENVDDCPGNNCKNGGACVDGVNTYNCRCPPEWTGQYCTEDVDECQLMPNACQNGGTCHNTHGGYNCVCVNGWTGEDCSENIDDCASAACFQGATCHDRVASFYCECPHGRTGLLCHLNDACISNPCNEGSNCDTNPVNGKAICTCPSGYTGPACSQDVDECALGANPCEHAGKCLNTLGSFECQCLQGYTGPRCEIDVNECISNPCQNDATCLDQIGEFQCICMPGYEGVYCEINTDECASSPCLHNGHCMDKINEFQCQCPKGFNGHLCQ
Source text: Extended Data FIG. 5. Quantitation of mNotch1 binding to DLL4 variants, ligand adsorption, and Notch surface expression. a, SPR binding isotherms were fitted to a 1:1 binding model to determine the binding affinity between mNotch1 (6-13) and each DLL4 variant. b, Determination of plate adsorption for WT DLL4 and Delta^MAX by ELISA. Data represent mean values±s.d. of three biological replicates. c, Binding assay of WT DLL4 and Delta^MAX tetramers to Notch1 overexpressing CHO-K1 N1-Gal4 cells was measured by flow cytometry. Data represent mean values±s.d. of three biological replicates. d, The level of Notch1 expression on the surface of cell lines used in this study was determined by flow cytometry. Data represent mean values±s.d. of three biological replicates. e, Percentage of CD8⁺ T cells expressing Notch1 (upper graph) and Notch2 (bottom graph) on cell surface determined by flow cytometry after stimulation with K32-WT DLL4, K32-Delta^MAX, or K32 for 96 hours. Data represent mean values±s.e.m. of three biological replicates. Delta^MAX statistics are referred to WT DLL4. *P<0.05, ****P<0.0001 (Two-way ANOVA).
Equilibrium dissociation constants were determined by surface plasmon resonance using a Biacore T200 instrument (GE Healthcare). […]

[3] = molecular target: T2, mouse Notch1 (EGF6-13, residues …); assay: SPR (Biacore T200), biotinylated mNotch1 EGF6-13 on streptavidin chip, DLL4 protein (N-EGF5) in flow, 1:1 model
Procedure: The binding affinity was measured between each DLL4 variant and the EGF6-13 region of murine Notch1 (mNotch1 EGF6-13) to test for cross-species reactivity (FIGS. 2B, 10, 11A). […] Lastly, the binding of Delta^MAX to full-length, cell surface-expressed Notch1 was assessed.
Equilibrium dissociation constants were determined by surface plasmon resonance using a Biacore T200 instrument (GE Healthcare). Approximately 100 resonance units (RU) of biotinylated Notch extracellular fragments (Notch1 (EGF6-13), Notch2 (EGF6-13), Notch3 (EGF5-12), Notch4 (7-12), and mouse Notch1 (EGF6-13)) were immobilized on individual flow cells at 5 μl/min using a streptavidin-coated sensor chip (Series S Sensor chip SA, GE Healthcare). Three-fold serial dilutions of recombinant DLL4 proteins (N-EGF5) starting at 50 μM (WT DLL4), 18 μM (DLL4.v2), and 6 μM (DLL4.v1 and Delta^MAX) were flowed over the chip at 25° C. in SPR buffer (20 mM HEPES pH 7.4, 150 mM NaCl, 1 mM calcium chloride, 0.1% BSA supplemented with 0.005% surfactant P20). Association (“on-rate”) and dissociation (“off-rate”) phases were performed at 10 μl/min for 120 seconds and 300 seconds, respectively. […] Data collection rate was performed at 10 Hz, and curves were reference-subtracted from a flow cell containing 100 RU of a negative control non-related protein (biotinylated mouse RNF43 PA domain). […]

B1: Delta^MAX (N-EGF5), non-biotinylated (ligand)
chain: SSVFQLQLQEFINERGVLASGRPCEPGCRTFFRVCLKHFQAVVSPGPCTFGTVSTPVLGTNSFAVRDDSSGGGRNPLQLPLNFTWPGTFSLIIEAWHAPGDDLRPEALPPDALISKFAIQGSLAVGQNWLLDEQTSTLTRLRYSYRVICSDNYYGDNCSRLCKKRNDYFGHYVCQPDGNPSCLPGWTGEYCQQPICLSGCHEQNGYCSKPAECLCRPGWQGRLCNECIPHPGCRHGTCSTPWQCLCDEGWGGLYCDQDLNYCTHHSPCKNGATCRNSGPRSYTCTCRPGYTGVDCELELSECDSNPCRNGGSCKDQEDGYHCLCPPGYYGLHCEHSTLSCADSPCFNGGSCRERNQGANYACECPPNFTGSNCEHHHHHHHH
notes: also called DLL4^MAX; soluble Delta^MAX
With B1 the “fold enhancement of affinity compared to WT DLL4” value [1] was 532 fold, the “EC50 (read off the curve)” value [2] was ~0.02 µM and the Kd [3] was 0.025 µM.
